B1: PBXIP1 (parent)
chain: LPVETLGPASRMDPESERALQAPH
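Also: lentivirally expressed fusions sorted by FACS into six bins by GFP to DsRed ratio, PSI derived from sequencing read proportions per bin multiplied by bin number.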

In the data set the parent is B1. Kind of data set: protein stability index of a GFP-peptide fusion (GPS, HEK-293T) (PSI 1-6); higher = more stable. To be noted: c terminus: a fixed tail appended.
Turning to LPVETLCPASRMDPESERALQAPH [G7C], the protein stability index worked out at 5.
On to LPVETLRPASRMDPESERALQAPH [G7R], for which the protein stability index was found to be 5.12.
For the variant LPVETLNPASRMDPESERALQAPH [G7N], the protein stability index was determined as 5.24.
On to LPVETLGPNSRMDPESERALQAPH [A9N], for which the protein stability index turned out to be 4.63.
For LPVETLGPGSRMDPESERALQAPH [A9G], the protein stability index amounted to 4.33.
In the case of LPVETLGPTSRMDPESERALQAPH [A9T], the protein stability index was 4.51.
Consider LPVETLGPMSRMDPESERALQAPH [A9M], for which the protein stability index was found to be 4.12.
LPVETLGPYSRMDPESERALQAPH [A9Y]: the protein stability index came to 4.26.
In the case of LPVETLGPCSRMDPESERALQAPH [A9C], the protein stability index was determined as 3.68.
For the variant LPVETLGPPSRMDPESERALQAPH [A9P], the protein stability index was 4.92.
On to LPVETLGPQSRMDPESERALQAPH [A9Q], for which the protein stability index was determined as 4.59.
Consider LPVETLGPKSRMDPESERALQAPH [A9K], for which the protein stability index was found to be 4.77.
The same measure for LPVETLGPFSRMDPESERALQAPH [A9F]: 3.83; for LPVSTLGPASRMDPESERALQAPH [E4S]: 4.94; for LPVNTLGPASRMDPESERALQAPH [E4N]: 4.53.
In the case of LPVHTLGPASRMDPESERALQAPH [E4H], the protein stability index amounted to 4.79.
Then LPVKTLGPASRMDPESERALQAPH [E4K], with 4.99; and LPVMTLGPASRMDPESERALQAPH [E4M], with 4.74; and LPVYTLGPASRMDPESERALQAPH [E4Y], with 4.22.
Regarding LPVGTLGPASRMDPESERALQAPH [E4G], the protein stability index is 5.03.
The same measure for LPVDTLGPASRMDPESERALQAPH [E4D]: 5.71; for LHVETLGPASRMDPESERALQAPH [P2H]: 4.71; for LQVETLGPASRMDPESERALQAPH [P2Q]: 4.47.
In the case of LNVETLGPASRMDPESERALQAPH [P2N], the protein stability index is 4.6.
Regarding LWVETLGPASRMDPESERALQAPH [P2W], the protein stability index came out at 1.53.
For the variant LIVETLGPASRMDPESERALQAPH [P2I], the protein stability index turned out to be 3.21.
Then LKVETLGPASRMDPESERALQAPH [P2K], with 3.95; and LCVETLGPASRMDPESERALQAPH [P2C], with 4.42.
As for LDVETLGPASRMDPESERALQAPH [P2D], the protein stability index is 5.
For the variant LVVETLGPASRMDPESERALQAPH [P2V], the protein stability index is 3.33.
As to LRVETLGPASRMDPESERALQAPH [P2R], the protein stability index turned out to be 4.05.
For the variant LPVETLGPASRMDPESERALQAPG [H24G], the protein stability index was found to be 4.26.
As for LPVETLGPASRMDPESERALQAPK [H24K], the protein stability index was 4.5.
As for LPVETLGPASRMDPESERALQAPL [H24L], the protein stability index came out at 3.94.
The same measure for LPVETLGPASRMDPESERALQAPT [H24T]: 4.59.
As to LPVETLGPASRMDPESERALQAPE [H24E], the protein stability index came out at 4.36.
Consider LPVETLGPASRMDPESERALQAPV [H24V], for which the protein stability index is 4.47.
The same measure for LPVETLGPASRMDPESERALQAPA [H24A]: 4.44; for LPVETLGPASRMDPESERALQAPM [H24M]: 4.23; for LPVETLGPACRMDPESERALQAPH [S10C]: 4.24.
LPVETLGPAMRMDPESERALQAPH [S10M]: the protein stability index worked out at 4.3.
As to LPVETLGPAARMDPESERALQAPH [S10A], the protein stability index worked out at 5.14.
With LPVETLGPAKRMDPESERALQAPH [S10K], the protein stability index came to 5.32.
On to LPVETLGPAGRMDPESERALQAPH [S10G], for which the protein stability index turned out to be 4.47.
The same measure for LPVETLGPAQRMDPESERALQAPH [S10Q]: 4.88; for LPVETLGPAYRMDPESERALQAPH [S10Y]: 3.85.
For the variant LPVEMLGPASRMDPESERALQAPH [T5M], the protein stability index worked out at 4.41.
With LPVESLGPASRMDPESERALQAPH [T5S], the protein stability index was found to be 4.68.
Then LPVEYLGPASRMDPESERALQAPH [T5Y], with 4.93; and LPVEVLGPASRMDPESERALQAPH [T5V], with 4.6; and LPVEPLGPASRMDPESERALQAPH [T5P], with 4.95.
As for LPVEQLGPASRMDPESERALQAPH [T5Q], the protein stability index was 5.52.
Then LPVETLGPASRIDPESERALQAPH [M12I], with 4.5.
On to LPVETLGPASRHDPESERALQAPH [M12H], for which the protein stability index is 4.11.
Then LPVETLGPASRTDPESERALQAPH [M12T], with 4.45; and LPVETLGPASREDPESERALQAPH [M12E], with 4.46; and LPVETLGPASRCDPESERALQAPH [M12C], with 4.32.
Consider LPVETLGPASRMDPEFERALQAPH [S16F], for which the protein stability index worked out at 3.85.
Regarding LPVETLGPASRMDPEPERALQAPH [S16P], the protein stability index was 3.95.
The same measure for LPVETLGPASRMDPEKERALQAPH [S16K]: 4.34; for LPVETLGPASRMDPETERALQAPH [S16T]: 4.35.
For LPVETLGPASRMDPEGERALQAPH [S16G], the protein stability index was 4.56.
Take LPVETLGPASRMDPEIERALQAPH [S16I]: the protein stability index came to 3.77.
Turning to LPVETLGPASRMDPEEERALQAPH [S16E], the protein stability index was found to be 4.48.
Take LPVETLGPASRMDPEMERALQAPH [S16M]: the protein stability index was 4.09.
Turning to LPVETLGPASRMDPERERALQAPH [S16R], the protein stability index was 3.56.
In the case of LPVETLGPASRMDPEVERALQAPH [S16V], the protein stability index turned out to be 4.31.
Consider LPVETRGPASRMDPESERALQAPH [L6R], for which the protein stability index worked out at 5.28.
Then LPVETFGPASRMDPESERALQAPH [L6F], with 4.81.
Regarding LPVETWGPASRMDPESERALQAPH [L6W], the protein stability index came to 4.72.
For LPVETSGPASRMDPESERALQAPH [L6S], the protein stability index was 5.44.
For LPVETEGPASRMDPESERALQAPH [L6E], the protein stability index was found to be 5.21.
On to LPVETYGPASRMDPESERALQAPH [L6Y], for which the protein stability index came out at 5.53.
Regarding LPVETTGPASRMDPESERALQAPH [L6T], the protein stability index stood at 5.37.
The same measure for LPVETHGPASRMDPESERALQAPH [L6H]: 5.09.
LPVETNGPASRMDPESERALQAPH [L6N]: the protein stability index turned out to be 5.42.
In the case of LPVETAGPASRMDPESERALQAPH [L6A], the protein stability index was determined as 5.19.
Take LPVETIGPASRMDPESERALQAPH [L6I]: the protein stability index amounted to 3.73.
Turning to LPVETLGPASRMDPESLRALQAPH [E17L], the protein stability index is 3.72.
For the variant LPVETLGPASRMDPESCRALQAPH [E17C], the protein stability index turned out to be 3.76.
Turning to LPVETLGPASRMDPESGRALQAPH [E17G], the protein stability index came to 4.13.
As to LPVETLGPASRMDPESFRALQAPH [E17F], the protein stability index amounted to 3.61.
LPVETLGPASRMDPESYRALQAPH [E17Y]: the protein stability index was determined as 3.92.
With LPVETLGPASRMDPESMRALQAPH [E17M], the protein stability index stood at 3.9.
As for LPVETLGPASRMDPESIRALQAPH [E17I], the protein stability index is 3.1.
Regarding LPVETLGPASRMDPESERATQAPH [L20T], the protein stability index stood at 4.58.
The same measure for LPVETLGPASRMDPESERASQAPH [L20S]: 4.49.
For the variant LPVETLGPASRMDPESERAYQAPH [L20Y], the protein stability index worked out at 4.14.
Regarding LPVETLGPASRMDPESERAFQAPH [L20F], the protein stability index came out at 4.28.
Take LPVETLGPASRMDPESERAGQAPH [L20G]: the protein stability index stood at 4.46.
In the case of LPVETLGPASRMDPESERADQAPH [L20D], the protein stability index stood at 4.92.
The same measure for LPVETLGPASRMDPESERAIQAPH [L20I]: 4.55.
As for LPVETLGPASRMDPESERANQAPH [L20N], the protein stability index worked out at 4.42.
The same measure for LPVETLGPASRMDPESERAMQAPH [L20M]: 4.45.

Source of the values: the supplement of paper PMC10567573.
